Values of other authors in patent publication US20140378381A1 (LATITUDE PHARMACEUTICALS, INC., priority 2011, published 2014).

How the values were obtained:
[1] = after injection

Substance: glucagon
- onset of action [1]: 5 to 20 min
- glucagon decomposed into degradation products (acidic solution (pH 2-4), 24 hours at 37° C.): 5-70%
- aggregation in aqueous solution (aqueous solutions of pH 3 or less): aggregate to form a gel within an hour
- solubility in water (physiological pH (pH 4-8)): insoluble
